Experimental data taken from paper PMC7484505, “Uncoupling sodium channel dimers restores the phenotype of a pain‐linked Nav1.7 channel mutation” (British Journal of Pharmacology, 2020).

Molecular target: the molecule itself
Assay: native gel or EMSA; hrCN-PAGE of digitonin extracts of cRNA-injected X. laevis oocytes (0.1 M sodium phosphate pH 8.0, 1 mM TCEP), non-denaturing conditions; GFP tags visualised by fluorescence scanning; masses judged against hTrpV1-GFP

Row | Protein | stoichiometry N
1 | hNav1.7^GFP (natural protein, numbers count on: isoform 3; pCMV6-neo-hNav1.7, Klugbauer et al. 1995; also called hNav1.7/WT; source: X. laevis oocytes, cRNA injected, in detergent extract (cleared supernatant); not shown: GFP, C-terminal, kept) not shown | 2
2 | hTRPV1^GFP (natural protein, human, UniProt Q8NER1-1 1-839, looked up, human TRPV1, transcript variant 3, subcloned from pDONR201 into pNKS2; Used as mass marker on the native gel; calculated mass of the GFP-tagged protomer printed as 123 kDa; also called human TRPV1 (transient receptor potential cation channel subfamily V member 1); source: X. laevis oocytes, cRNA injected, in digitonin extract (cleared supernatant); not shown: GFP, C-terminal, kept) MKKWSSTDLGAAADPLQKDTCPDPLDGDPNSRPPPAKPQLSTAKSRTRLFGKGDSEEAFPVDCPHEEGELDSCPTITVSPVITIQRPGDGPTGARLLSQDSVAASTEKTLRLYDRRSIFEAVAQNNCQDLESLLLFLQKSKKHLTDNEFKDPETGKTCLLKAMLNLHDGQNTTIPLLLEIARQTDSLKELVNASYTDSYYKGQTALHIAIERRNMALVTLLVENGADVQAAAHGDFFKKTKGRPGFYFGELPLSLAACTNQLGIVKFLLQNSWQTADISARDSVGNTVLHALVEVADNTADNTKFVTSMYNEILMLGAKLHPTLKLEELTNKKGMTPLALAAGTGKIGVLAYILQREIQEPECRHLSRKFTEWAYGPVHSSLYDLSCIDTCEKNSVLEVIAYSSSETPNRHDMLLVEPLNRLLQDKWDRFVKRIFYFNFLVYCLYMIIFTMAAYYRPVDGLPPFKMEKTGDYFRVTGEILSVLGGVYFFFRGIQYFLQRRPSMKTLFVDSYSEMLFFLQSLFMLATVVLYFSHLKEYVASMVFSLALGWTNMLYYTRGFQQMGIYAVMIEKMILRDLCRFMFVYIVFLFGFSTAVVTLIEDGKNDSLPSESTSHRWRGPACRPPDSSYNSLYSTCLELFKFTIGMGDLEFTENYDFKAVFIILLLAYVILTYILLLNMLIALMGETVNKIAQESKNIWKLQRAITILDTEKSFLKCMRKAFRSGKLLQVGYTPDGKDDYRWCFRVDEVNWTTWNTNVGIINEDPGNCEGVKRTLSFSLRSSRVSGRHWKNFALVPLLREASARDRQSAQPEEVYLRQFSGSLKPEDAEVFKSPAASGEK | 4
